Data as given in the DeepSol protein solubility set.

Test: soluble on expression in E. coli; label from the status in PepcDB or PDB records

Sequence	soluble on expression in E. coli
MLFLPILILNLLIITHAIDIIPREVLFQDPKYSSVSLSPDAKQVGYVAPDENGIRNVFTRCSSCSYSRQVTFETEHPILNYVWTAIPDVILFTQDNHGDENTRIYKKNISATAIAADKTQRVVISEKPMVKAMILSNNLISETVLIGMNDENPALHNIYAFNCQTDELKLVLQNRRFSIFFFDNDLNVRLASEEGPDGEMIYYRPRSNEGARTTEQNTWVEYLRIQHDDKAITMPITFDKSNNFMYWIMGDGSDLGNLVVFPFEDPQQKEILYTAQRAQIGNVLIHPTDKTLLAVTEVYHKPELFVANETFMEDLQYLVNMKPSGSMNIVSMSIDMSTWLVTYSSSDEPYDIYLYRRWNKKAELFMSTRPELKKYTLNKQIGFDFRARDEMTIQAYLSLPPQAPLLKSSQVPDGDRPYANLGMIPAVPQKMIVLVHGGPKARDHYGFSPMNAWLTNRGYSVLQVNFRGSTGFGKRLTNAGNGEWGRKMHFDILDAVEFAVSKGIANRSEVAVMGGSYGGYETLVALTFTPQTFACGVDIVGPSNLISLVQAIPPYWLGFRKDLIKMVGADISDEEGRQSLQSRSPLFFADRVTKPIMIIQGANDPRVKQAESDQFVAALEKKHIPVTYLLYPDEGHGVRKPQNSMEQHGHIETFLQQCLGGETQPFQPGQYNSSAIIKKIGIEGAAIARQNLQIAQNQFAQQLPRGPVAPSIFYRPPVRAQRVMLAPNQNVMNRIFPVQG	soluble
MSETAKRLLRRVEAIDAAAAENRARAEQYRQMTEKLAAVTGTATSPDGVVTVVAGPDGSVKEVTFSEQVRKADPAALSASVVHTIAQARVNATREQAEIMRRNLDDTHLLDQVLAEDARLFGDKQPEDPGPPPPAAVPTGGTPAGRPRTQPARQAYNDDDSFEDFQVLRRS	not soluble
TKDWDWNIEINLGHNKNKLKKLYKTKNAEGQFVEKPIIISDGTSIAGTAKRVLQPGYPCDTYYLKEWAGVNPENGAPQWYKTVENEDGTLSRQKTSNYSEADQVKCGSSSPDIFGGFSTVLRWKDIDLNAVFGYSVGGQIYNYSRQEYDSDGAYNDRNQMKLQKGWNRWEKPGDIATHPVASYSNTSKSNSSSSRYLEKNDYLKLRSLSIGYNLKLPQYYINNMRIFFTGENLFCVTNYSGVDPEIPASDGSVIGTALPSVYPTVRKFMFGLNLTF	not soluble
GPGSMVRIRSLAKELRQLELQKQTASLPPPRAASSDDVLDDATRSATSSRKPEAPSCSSSPRDGDILTNAAHASTTAEAEAVPSSSPASRTVAAAEPQPTSAFPLSQLSLSSPDGAHNRSRNSLYSLGGSRFNILLGGSHGDGGACRKSQVRKATRACASGGGKNGAATATATQVPQRRGEAGGSSLLEKGKDGEVVANPAPPLGTSSGIPTRPPFKRLLAQPFSHVLVCDFEATCASGSVHYPHEIIEFPVVVLDTATLRIVAEFHRYVRPLRNPKLTAFCTELTGITQEMVDVADPLPTVVAQFQDWLKTEVYPLCWMWARHYGPNRLSHNLKSEQRRFVYDEHTDAAKANTSAEAMVCMATDGPWDMRRFMHQCSVLRDGVDFPPVCYRYINVRHSYSDHFKCRQAKLTHMLKKMSMSFEGRRHSGIDDTRNIARVLAELFARGYRVHHVSTITYAHRGDAFLESNRAAQELLSEFGETDETHTSKHANAHKGGGRQRGVKRA	not soluble
MASQNRDPAATSVAAARKGAEPSGGAARGPVGKRLQQELMTLMMSGDKGISAFPESDNLFKWVGTIHGAAGTVYEDLRYKLSLEFPSGYPYNAPTVKFLTPCYHPNVDTQGNISLDILKEKWSALYDVRTILLSIQSLLGEPNIDSPLNTHAAELWKNPTAFKKYLQETYSKQVTSQEP	soluble
KRLILLDYDGTLVPFQKRPEDASPTPQLLDTLQKLTADPLNHVVINSGRDHFTLEKWLGALPISFAAEHGAFYKENGVWHKNVHAQEWSPGLLSILKLFVSKTPRSHLEVKETALAWHYRETDAWLGRLRAQQLVNSLISICLKQNLQIMQGNKVIEIKSPEFTKGSEVNRLLLATRYDFILAMGDDTTDDDMFKALPVTAVTVKIGTASESARYNLPVQTDTLPFLQRLTDKSVVKAALKSGLKGQLSSAIDFLKRIINH	not soluble
MNDAVITLNGLEKRFPGMDKPAVAPLDCTIHAGYVTGLVGPDGAGKTTLMRMLAGLLKPDSGSATVIGFDPIKNDGALHAVLGYMPQKFGLYEDLTVMENLNLYADLRSVTGEARKQTFARLLEFTSLGPFTGRLAGKLSGGMKQKLGLACTLVGEPKVLLLDEPGVGVDPISRRELWQMVHELAGEGMLILWSTSYLDEAEQCRDVLLMNEGELLYQGEPKALTQTMAGRSFLMTSPHEGNRKLLQRALKLPQVSDGMIQGKSVRLILKKEATPDDIRHADGMPEININETTPRFEDAFIDLLGGAGTSESPLGAILHTVEGTPGETVIEAKELTKKFGDFAATDHVNFAVKRGEIFGLLGPNGAGKSTTFKMMCGLLVPTSGQALVLGMDLKESSGKARQHLGYMAQKFSLYGNLTVEQNLRFFSGVYGLRGRAQNEKISRMSEAFGLKSIASHATDELPLGFKQRLALACSLMHEPDILFLDEPTSGVDPLTRREFWLHINSMVEKGVTVMVTTHFMDEAEYCDRIGLVYRGKLIASGTPDDLKAQSANDEQPDPTMEQAFIQLIHDWDKEHSNE	soluble
AELTALESLIEMGFPRGRAEKALALTGNQGIEAAMDWLMEHEDDPDVDEPL	soluble
MGSDKIHHHHHHMGDLSFIAINDKCEVVLDNEIYKSNIQGIEEKYIAISLPVANGTYAIMHKGDMTEIWCYHDNQVYSFTSTVIERKKEDAIKLILISKPSYENIKRVQRRKNFRVDLIESIKYKVLNKNVVKTEIEKLKEASEEFSDGYMIDLSGGGLKIRIKQKPNVGDSIFVNLPIGDQKLFLISTCVRAIREVNGEYLCGLEFDDDIDERIREHIINYTFNIMRKHMKKR	not soluble
MAAINTKVKKAVIPVAGLGTRMLPATKAIPKEMLPLVDKPLIQYVVNECIAAGITEIVLVTHSSKNSIENHFDTSFELEAMLEKRVKRQLLDEVQSICPPHVTIMQVRQGLAKGLGHAVLCAHPVVGDEPVAVILPDVILDEYESDLSQDNLAEMIRRFDETGHSQIMVEPVADVTAYGVVDCKGVELAPGESVPMVGVVEKPKADVAPSNLAIVGRYVLSADIWPLLAKTPPGAGDEIQLTDAIDMLIEKETVEAYHMKGKSHDCGNKLGYMQAFVEYGIRHNTLGTEFKAWLEEEMGIKK	soluble
GHMPNIPPPFTAPYAPDDAEIAARLLPASHLSPPQEARIHRTATRLIEAIRKRDDRLGGVEDMLREFALSTKEGLALMVLAEALLRVPDARTADQFIEDKLGEGDFIHHETKSTAFLVNASAWALGLSARVIQPGETPDGTIGRLVKRLGAPAVRTATRQAMRLMGNHFVLGETIEQALERGKPRSGQKTRYSFDMLGEGARTAADARRYFDAYASAIETIGKAAGNHALPDRPGISVKLSALHPRFEAISRARVMVELVPQLLDLAQRAKAHDLNFTVDAEEADRLELSLDVIAATLADPSLKGWDGFGLAIQAYQKRASAVIDYVDALARAHDRKLMVRLVKGAYWDTEIKRAQERGLDGYPVFTRKAMTDLNYVACASKLLALRPRIFPQFATHNALTVATVLEMAEGSSGFEFQRLHGMGEALYEQLAKDHADIAYRTYAPVGSHRDLLAYLVRRLLENGANSSFVAQAADYRVPVPALLQRPADAIVRPQAAAHPRIPLPCDLFAPERRNSRGVEFGARTALDQLLTDVKAETGDLKPIADATPDQAHAAVAAARAGFAGWSRTPAGIRAAALEQAAHLLESRSAHFIALLQREGGKTLDDALSELREAADFCRYYAAQGRKLFGSETAMPGPTGESNALTMRGRGVFVAISPWNFPLAIFLGQVTAALMAGNSVVAKPAEQTPRIAREAVALLHEAGIPKSALYLVTGDGRIGAALTAHPDIAGVVFTGSTEVARSINRALAAKDGPIVPLIAETGGINAMIADATALPEQVADDVVTSAFRSAGQRCSALRLLFVQEDVADRMIEMVAGAARELKIGDPSDVATHVGPVIDVEAKQRLDAHIARMKTEARLHFAGPAPEGCFVAPHIFELTEAGQLTEEVFGPILHVVRYRPENLERVLRAIERTGYGLTLGVHSRIDDSIEAIIDRVQVGNIYVNRNMIGAVVGVQPFGGNGLSGTGPKAGGPHYLARFATEQTVTINTAAAGGNAALLAGEE	soluble
MRGSHHHHHHGSACMKRQGASSERKRARIPSGKAGAANGFLMEVCVDSVESAVNAERGGADRIELCSGLSEGGTTPSMGVLQVVKQSVQIPVFVMIRPRGGDFLYSDREIEVMKADIRLAKLYGADGLVFGALTEDGHIDKELCMSLMAICRPLPVTFHRAFDMVHDPMAALETLLTLGFERVLTSGCDSSALEGLPLIKRLIEQAKGRIVVMPGGGITDRNLQRILEGSGATEFHCSARSTRDSGMKFRNSSVAMGASLSCSEYSLKVTDVTKVRTLNAIAKNILV	soluble
EKDSQSPKIRQKYLRQYPELNSLIPAVVTEVREKEATAALQNGQIIIIPWEGMSWARPALKRGGWVGKSPTKAQQVVAAGDIIYVHPTEKSWQLAQIP	not soluble
MNIVSWKDANDEVAGGATTRREREVKEDQEETEVRATSGKTVIKKQPTSISSSSSSWMKSKDPRIVRVSRAFGGKDRHSKVCTLRGLRDRRVRLSVPTAIQLYDLQERLGVDQPSKAVDWLLDAAKEEIDELPPLPISPENFSIFNHHQSFLNLGQRPGQDPTQLGFKINGCVQKSTTTSREENDREKGENDVVYTNNHHVGSYGTYHNLEHHHHHHQHLSLQADYHSHQLHSLVPFPSQILVCPMTTSPTTTTIQSLFPSSSSAGSGTMETLDPRQMVSHFQMPLMGNSSSSSSQNISTLYSLLHGSSSNNGGRDIDNRMSSVQFNRTNSTTTANMSRHLGSERCTSRGSDHHM	soluble
EDRSVHFDSMSNGQGAASALPIFAEFLKRVYADPKLGYTTEEKFEFPQDFQPCMMDQNVEYFDAGGGEVVEPLPEILVELP	not soluble
MAGDPMAHITRFEAPWFLMISKKQYKWTVRPNAGPHSIEKSIPLAVVIRDYLKLAGTIREAKHIIFDGKVLVDGKVRKDYKYPVGLMDIVSIPSADLYFRVLPDNVRFMRFSKISADEARYKYVRIINKTTIKEGRIQLNLEDGRNILVDKETAKNFKTLMTLKIELPSQQILDSFTISERSYAIFVGGRNVGIHGIVKNINLSKFKSRKYSVITLESRDGNTYQTNIMNVMSIGREKSDLRVDLEHHHHHH	soluble
SKIASFDVDAQKGFTPLCPDELPVPGGDAIGGALNQLASRAALRLGSKDAHSPKAAWVVESAEQMLRPLAYPDADLTWVSHCVPGTPGFELLDELPRPIDYDFFVWKGVEPDLHPYGACYHDLAERRSTGVIEYLRQNGVSHVLVGGLALDYCVKNTALQLRRAGFEVLLYLPACRAIAEDTAQRACDEMRDAGVILCADLERLDSALA	not soluble
MSLSPEDAIVIILSDDDTIRSALDANIHLQGRRSHLCKSRTDFLISPEADLVGCVVLDARLPDLTASDLTHLICAHAIRCPVIVLTGHGGQAMTVNATKFHVSFIPQPFDLNALAEKIHAAIRTTMEIGRLEGNYRTLTPREREVMKFVAEGLLNKQVAFKLNISEITVKAHRGQVMRKMNARTLPHLVNMAAKLDIGVAFLHEGHHHHHH	soluble
MQTSAQKVIQDLTNRVQAEKEELEQLERERDLWKYNAQMNDKEALRGNERKKNIMKKGGPLCYFCNKNHVPSLCRTYPDGISRQKSLENQGKCIKCLKIGHQNGDNFCEKHHIVCRTCQQSHVKAVCPILYPKKDTPPKILRARRRSLIRAQKKKDFQEPENKHEQLTSTKAPCQENWSDF	not soluble
